Measurements reported in patent publication US5846747A, “Method for detecting glucagon-like peptide-1 antagonists and agonists” (Novo Nordisk A/S, priority 1993, dated 1998).

These substances were tested against T1, rat GLP-1 receptor (Rattus norvegicus, UniProt P32301) (assay: Displacement of 125I-GLP-1 binding to COS cells transfected with the rat GLP-1 receptor cDNA). Details: 20 pM 125I-GLP-1, increasing concentrations of cold peptide.
T1 construct: expressed in transfected cells; host or cells: COS cells
T1 sequence (P32301 22-463): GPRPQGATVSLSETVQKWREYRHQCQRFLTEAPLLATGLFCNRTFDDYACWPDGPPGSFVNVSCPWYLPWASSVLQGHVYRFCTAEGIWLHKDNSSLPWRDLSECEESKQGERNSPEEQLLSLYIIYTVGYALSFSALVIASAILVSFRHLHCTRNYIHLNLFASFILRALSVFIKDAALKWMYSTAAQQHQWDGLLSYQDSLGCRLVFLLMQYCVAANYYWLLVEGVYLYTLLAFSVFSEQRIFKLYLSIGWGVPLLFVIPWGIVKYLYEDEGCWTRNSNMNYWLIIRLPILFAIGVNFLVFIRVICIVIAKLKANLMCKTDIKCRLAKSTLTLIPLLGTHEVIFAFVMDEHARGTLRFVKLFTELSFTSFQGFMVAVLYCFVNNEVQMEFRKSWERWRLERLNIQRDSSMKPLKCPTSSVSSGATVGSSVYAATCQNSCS

displacement of GLP-1 binding (in words)	Substance
did not displace binding	gastric inhibitory peptide [GIP]
did not displace binding	secreting: peptide hormone of related structure (probably secretin)
did not displace binding	vasoactive intestinal peptide [VIP]
